Experimental data as given in US20190248902A1 (published 2019).
Substitutions are numbered along the chain they refer to.

T1: human ASGR-1 (wild type) (human, UniProt P07306 1-291)
T1 construct: also called wt ASGR1; huASGR-1
T1 sequence: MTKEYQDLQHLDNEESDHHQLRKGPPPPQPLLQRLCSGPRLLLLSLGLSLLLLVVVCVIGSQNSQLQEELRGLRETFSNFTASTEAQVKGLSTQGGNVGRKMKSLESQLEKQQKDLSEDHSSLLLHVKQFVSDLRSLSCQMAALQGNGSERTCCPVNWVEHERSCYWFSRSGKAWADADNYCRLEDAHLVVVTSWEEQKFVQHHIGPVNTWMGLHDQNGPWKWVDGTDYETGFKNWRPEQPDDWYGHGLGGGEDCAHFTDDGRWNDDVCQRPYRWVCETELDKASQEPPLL

T2: human ASGR-1 mutant construct H203 (human, UniProt P07306 1-291)
T2 construct: Arg/Glu scanning: non-arginine residues were changed to arginine; Transiently expressed on CHO-S cells
T2 sequence: T1 sequence with H203R

B1: 72F5 (antibody, V domains shown)
VH: EVQLLESGGGLVQPGGSLRLSCAASGFTFSSYAMIWVRQAPGKGLEWVSTISGSGGYTYSADSVKGRFTISRDNSKNTLYLQMNSLRAEDTAVYYCARRIAVTGTEWYDPWGQGTLVTVSS
VL: DIQMTQSPSSLSASVGDRVIIPCRASQNISSYLNWYQQKPGKAPKLLIYAASSLQSGVPSRFSGSGSGTDFTLTISSLQPEDFATYSCQQTYSTPTFGQGTRLDIN
notes: mAb
B2: 175F4 (antibody, V domains shown)
VH: QVQLQQSGPGLVKPSQTLSLTCAISGDSVSSNSAAWNWIRQSPSRGLEWLGRTYYRSKWYNAYPVSMESRISINPDTSKNQFSLQLNSVTPEDTAVYYCARDKAAGRNDFYYYGMDVWGQGTTVTVSS
VL: QSALTQPASVSGSPGQSITISCTGTSSDVGRFNLVSWYQQHPGYAPKLMIYEVSKRPSGVSNRFSGSKSGNTASLTISGLQAEDEADYYCCSYAGSSTYVVFGGGTKLTVL
notes: mAb
B3: 149D11 (antibody, V domains shown)
VH: EVQLLESGGGLVQPGGSLRLSCAASGFTFSSYAMSWVRQAPGKGLEWVSAISGRGGNTFYADSVKGRFTISRDNSKNTLYRQMNSLRAEDTAVYYCAKKDYDYVWGSPYFDYWGQGTLVTVSS
VL: DIQMTQSPASVSASVGDRVTITCRASQNISNWLTWYQQKPGKAPKLLIYAASSLQSGVPSRFSGSGSGTDFTLSISSLQPEDFATYYCQQTDSFPFTFGPGTKVDVK
notes: mAb
B4: 61A1 (antibody, V domains shown)
VH: QVQLQESGPGLVKPSETLSLTCTVSGGSISSHFWSWIRQPAGKGLEWIGRIYIRGSTNYNPSLKSRVTMSVDTSKNQFSLKLSSVTAADTAVYYCAREGKTGGVSYFDYWGQGTLVTVSS
VL: DIQMTQSPSSLSASVGDRVTITCRASQSISSYLNWYQQKPGKAPKLLIYAASSLQSGVPSRFSGSGSGTDFTLTISSLQPEDFAPYYCQQSYNISFTFGPGTKVDIK
notes: mAb
B5: 52H2 (antibody, V domains shown)
VH: EVQLLESGGGLVQPGGSLRLSCAASGFTFSRNAMSWVRQAPGMGLEWVSAISGRGGNTFYADSVKGRFTVSRDNSKNTLFLQMNSLRAEDTAVYYCAKNGREQWLDYWGQGTLVTVSS
VL: DIQMTQSPSSVSASVGDRVTITCRASQNITNWLAWFQQKPGRAPKLLIYTTSSLQSGVPSRFSGSGSGTDFTLTISSLQPEDFATYCCQQTNSFPWTFGHGTKVEVK
notes: mAb
B6: 147E9 (antibody, V domains shown)
VH: EVQLVESGGGLVQPGGSLRLSCAASGFTFSSYSMNWVRQAPGKGLEWVSSISGRNTTIYYADSVKGRFTISRDNAKNSLYLQMNSLRDEDTAVYYCSRDRGSCWGQGTLVTVSS
VL: DIQMTQSPSSLSASVGDRVTITCRASQDINNYLAWFQQKPGKAPKSLIVAASSLQSGVPSKFSGSGSGTDFTLTISSLQPEDFATYYCQQYNSYPLTFGGGTKVEIK
notes: mAb
B7: 60E8 (antibody, V domains shown)
VH: QVQLQESGPGLVRPSATLSLTCTVSGGSISRSSYYWGWIRQPPGKGLEWIGSIYYSGSASYNPSLKSRVTISVDTSENQFSLRLSSVTAADTAVYYCARLDSGWSFDYWGQGTLVTVSS
VL: DIQMTQSPSSLSASVGDRVTFTCRASQGIRNDLGWFQQKPGKAPKRLIYAASSLQSGVPSRFSGSGSGTEFTLTISSLQPEDFATYYCLQHSSYPLTFGGGTKVEIK
notes: mAb
B8: 59F2 (antibody, V domains shown)
VH: EVQLVESGGGLVQPGGSLRLSCGASGFTFSSYSMNWVRQAPGKGLEWVSYISGSSNIIYYTDSVKGRFTISRDNAKNSLYLQMNSLRDEDTAVYYCARADTPMVLYFYGMDVWGQGTTVTVSS
VL: SYELTQPPSVSVSPGQTASITCSGDKLGDKYASWYQQRPGQSPVLVIYQDNKRPSGIPERFSGSNSGNTATLTISGTQAMDEADYYCQAWDNNTVVFGGGTKLTVL
notes: mAb
B9: 151B9 (antibody, V domains shown)
VH: EVQLLESGGGLVQPGGSLRLSCAASGFTFSSYAMSWVRQAPGKGLEWVSVISGGGSSTYYADSVKGRFTISRDNSKNTLYLQMNSLRAEDTAVYYCAKWRGNPTDYGMDVWGQGTTVTVSS
VL: B8 VL with T21A, K26N, R38K, N51S, T77I, N92S, N93S
notes: mAb

The binders below were run against T1, human ASGR-1 (wild type) (assay: FACS, transfected CHO-S cells, mAb 5 ug/ml).
Description: (§1) The ability of human ASGR-1-specific, ligand competing antibodies to bind to the mutant hASGR-1 proteins was assessed by FACS as described above.
(§2) Antibodies were tested for binding to the individual mutant and wild type ASGR-1 constructs using normalized antibody concentrations (5 ug/ml). CHO—S cells transiently expressing the appropriate mutated or non-mutated antigen of interest were mixed with antibody sample or controls, incubated for 1 hour at 4° C., and then washed twice. Cells with bound antibody were then incubated with Alexa Fluor® 647 IgG Fc fragment-specific detection antibody and 7-AAD viability stain for 15 minutes at 4° C., washed once and resuspended in FACS buffer. Samples were analyzed using a BD Accuri™ Flow Cytometer and an Intellicyt HyperCyt Autosampler. As a negative control, supernatants and controls were also screened against CHO—S cells transfected with empty parental vector (referred to as mock). […] Because mutant hASGR-1 expression levels varied relative to each other, sample binding data for each construct was normalized for expression by dividing the binding data from an antibody not affected by the mutations (e.g., 65C12) by the binding values of each test antibody on a given mutant construct. Also, because the antibody binding affinities varied amongst the samples, the expression corrected data (above) was further normalized by comparing test antibody binding on each mutant construct to wild type hASGR-1. Identification of specific mutations that affected test antibody binding was performed by an interquartile range (IQR) analysis to determine statistical outliers. A mutation was identified as a “hit” if the calculated values were >3× the IQR (above the 3rd quartile/upper fence) for a given mutant construct. Although IQR analysis was used here to determine signifance and identify hits, one skilled in the art will recognize that a number of methods could be employed in order to normalize the data (eg. using epitope-tagged constructs or other ASGR-1-binding antibodies directed against non-CBD epitopes).

Row | Binder | FACS Binding Geomean
1 | B1 | 28000
2 | B2 | 33600
3 | B3 | 23600
4 | B4 | 40000
5 | B5 | 48000
6 | B6 | 40200
7 | B7 | 38700
8 | B8 | 27900
9 | B9 | 23500

What follows are binders tested against T2, human ASGR-1 mutant construct H203 (assay: FACS, transfected CHO-S cells, mAb 5 ug/ml).
Description: as §1, §2

Row | Binder | FACS Binding Geomean
10 | B1 | 10500
11 | B2 | 14800
12 | B3 | 8870
13 | B4 | 20100
14 | B5 | 18600
15 | B6 | 21500
16 | B7 | 1520
17 | B8 | 1350
18 | B9 | 9740

The binders below were run against T1, human ASGR-1 (wild type) (assay: FACS ratio: 65C12 geomean / this mAb geomean).
Description: (§3) Mutant hASGR-1 variants were constructed such that non-arginine residues were changed to arginine and where wild type arginine residues were mutated to glutamic acid. Each mutant hASGR-1 sequence was then cloned into a mammalian expression vector and used to transiently transfect CHOs cells. The ability of human ASGR-1-specific, ligand competing antibodies to bind to the mutant hASGR-1 proteins was assessed by FACS as described above.
(§4) Antibodies were tested for binding to the individual mutant and wild type ASGR-1 constructs using normalized antibody concentrations (5 ug/ml). CHO—S cells transiently expressing the appropriate mutated or non-mutated antigen of interest were mixed with antibody sample or controls, incubated for 1 hour at 4° C., and then washed twice. Cells with bound antibody were then incubated with Alexa Fluor® 647 IgG Fc fragment-specific detection antibody and 7-AAD viability stain for 15 minutes at 4° C., washed once and resuspended in FACS buffer. Samples were analyzed using a BD Accuri™ Flow Cytometer and an Intellicyt HyperCyt Autosampler. As a negative control, supernatants and controls were also screened against CHO—S cells transfected with empty parental vector (referred to as mock). […] Because mutant hASGR-1 expression levels varied relative to each other, sample binding data for each construct was normalized for expression by dividing the binding data from an antibody not affected by the mutations (e.g., 65C12) by the binding values of each test antibody on a given mutant construct. Also, because the antibody binding affinities varied amongst the samples, the expression corrected data (above) was further normalized by comparing test antibody binding on each mutant construct to wild type hASGR-1. Identification of specific mutations that affected test antibody binding was performed by an interquartile range (IQR) analysis to determine statistical outliers. A mutation was identified as a “hit” if the calculated values were >3× the IQR (above the 3rd quartile/upper fence) for a given mutant construct.

Row | Binder | Expression Normalization to mAb 65C12
19 | B1 | 2
20 | B2 | 1.67
21 | B3 | 2.38
22 | B4 | 1.4
23 | B5 | 1.17
24 | B6 | 1.4
25 | B7 | 1.45
26 | B8 | 2.01
27 | B9 | 2.38

These binders were tested against T2, human ASGR-1 mutant construct H203 (assay: FACS ratio: 65C12 geomean / this mAb geomean).
Description: as §3, §4

Row | Binder | Expression Normalization to mAb 65C12
28 | B1 | 2.45
29 | B2 | 1.74
30 | B3 | 2.91
31 | B4 | 1.28
32 | B5 | 1.38
33 | B6 | 1.2
34 | B7 | 17
35 | B8 | 19.1
36 | B9 | 2.65

What follows are binders tested against T2, human ASGR-1 mutant construct H203 (assay: FACS ratio: H203 normalized value / wt normalized value).
Description: as §1, §2

Row | Binder | Normalization to wt ASGR1 Binding
37 | B1 | 1.22
38 | B2 | 1.04
39 | B3 | 1.22
40 | B4 | 0.911
41 | B5 | 1.18
42 | B6 | 0.858
43 | B7 | 11.7
44 | B8 | 9.53
45 | B9 | 1.11
